From paper PMC6167014 (Cancer research, 2017) come the findings set out here.

To fix the notation:
T1: GST-BAP1-UCH (1–250 aa) (human, UniProt Q92560 1-250)
T1 sequence (looked up): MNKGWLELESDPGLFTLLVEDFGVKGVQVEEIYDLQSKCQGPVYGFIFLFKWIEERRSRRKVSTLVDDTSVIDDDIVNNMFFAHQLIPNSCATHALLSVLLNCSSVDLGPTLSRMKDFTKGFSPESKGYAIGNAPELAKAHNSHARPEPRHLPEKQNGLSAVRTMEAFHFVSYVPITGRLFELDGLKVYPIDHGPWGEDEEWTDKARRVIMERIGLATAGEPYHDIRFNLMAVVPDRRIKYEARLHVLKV

T2: His-BAP1-FL ∆E283-S285 (baculovirus) (human, UniProt Q92560 1-729, ∆E283-S285)
T2 sequence (looked up): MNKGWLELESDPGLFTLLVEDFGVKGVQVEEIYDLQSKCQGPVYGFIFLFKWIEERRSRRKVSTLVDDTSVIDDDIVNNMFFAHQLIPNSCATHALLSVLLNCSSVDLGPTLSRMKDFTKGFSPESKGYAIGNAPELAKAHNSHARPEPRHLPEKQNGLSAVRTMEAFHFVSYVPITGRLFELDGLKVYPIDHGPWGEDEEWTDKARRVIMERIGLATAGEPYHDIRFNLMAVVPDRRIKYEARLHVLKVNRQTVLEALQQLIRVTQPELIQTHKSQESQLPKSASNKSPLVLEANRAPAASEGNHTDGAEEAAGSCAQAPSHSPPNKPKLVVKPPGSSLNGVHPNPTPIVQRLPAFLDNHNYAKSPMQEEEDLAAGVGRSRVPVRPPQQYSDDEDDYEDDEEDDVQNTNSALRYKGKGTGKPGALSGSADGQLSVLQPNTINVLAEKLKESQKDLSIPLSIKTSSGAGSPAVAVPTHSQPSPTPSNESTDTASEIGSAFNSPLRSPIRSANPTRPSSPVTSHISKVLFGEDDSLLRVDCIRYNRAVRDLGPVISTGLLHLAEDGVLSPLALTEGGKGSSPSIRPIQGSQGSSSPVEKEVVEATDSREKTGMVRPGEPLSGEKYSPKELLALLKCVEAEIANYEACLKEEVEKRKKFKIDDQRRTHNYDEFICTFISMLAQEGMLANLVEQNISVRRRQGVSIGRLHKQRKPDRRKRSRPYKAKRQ

T3: GST-BAP1 (full length) (human, UniProt Q92560 1-729)
T3 sequence (looked up): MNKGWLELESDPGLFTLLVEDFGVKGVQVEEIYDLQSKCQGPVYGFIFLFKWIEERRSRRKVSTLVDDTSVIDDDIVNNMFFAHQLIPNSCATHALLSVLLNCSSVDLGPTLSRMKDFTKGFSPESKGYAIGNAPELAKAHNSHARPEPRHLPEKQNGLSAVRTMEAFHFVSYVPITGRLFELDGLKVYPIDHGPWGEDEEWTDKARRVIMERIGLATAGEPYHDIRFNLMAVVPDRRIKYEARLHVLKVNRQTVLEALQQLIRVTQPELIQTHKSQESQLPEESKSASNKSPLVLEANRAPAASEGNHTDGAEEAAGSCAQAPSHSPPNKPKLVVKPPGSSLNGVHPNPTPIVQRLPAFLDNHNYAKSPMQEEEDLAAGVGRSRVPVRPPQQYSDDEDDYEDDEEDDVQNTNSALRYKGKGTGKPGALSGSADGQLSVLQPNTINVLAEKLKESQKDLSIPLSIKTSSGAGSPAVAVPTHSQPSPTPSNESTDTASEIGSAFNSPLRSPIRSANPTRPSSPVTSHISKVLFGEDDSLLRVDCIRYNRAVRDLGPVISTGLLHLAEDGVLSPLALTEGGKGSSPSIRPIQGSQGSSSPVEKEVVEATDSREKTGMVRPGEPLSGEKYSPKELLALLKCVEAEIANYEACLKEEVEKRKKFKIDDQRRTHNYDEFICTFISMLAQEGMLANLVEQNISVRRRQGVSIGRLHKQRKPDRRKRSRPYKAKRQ

T4: GST-BAP1-ULD (human, UniProt Q92560 601-729)
T4 sequence (looked up): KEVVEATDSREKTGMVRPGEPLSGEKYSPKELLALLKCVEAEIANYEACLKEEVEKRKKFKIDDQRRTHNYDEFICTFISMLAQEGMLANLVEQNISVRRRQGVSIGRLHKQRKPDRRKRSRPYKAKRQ

B1: His-BAP1-ULD (601–729) WT (domain or fragment, human, UniProt Q92560 601-729, looked up)
chain: T4 sequence (looked up)
B2: His-BAP1-ULD F660P (domain or fragment, human, UniProt Q92560 601-729, looked up)
chain: T4 sequence (looked up) with F60P
B3: His-BAP1-ULD L650P (domain or fragment, human, UniProt Q92560 601-729, looked up)
chain: T4 sequence (looked up) with L50P
B4: Flag-ASXL2 (261–649 aa) (baculovirus) (domain or fragment, human, UniProt Q76L83 261-649, looked up)
chain: MKRTKCADIDVETPDSILVNTNLRALINKHTFSVLPGDCQQRLLLLLPEVDRQVGPDGLMKLNGSALNNEFFTSAAQGWKERLSEGEFTPEMQVRIRQEIEKEKKVEPWKEQFFESYYGQSSGLSLEDSKKLTASPSDPKVKKTPAEQPKSMPVSEASLIRIVPVVSQSECKEEALQMSSPGRKEECESQGEVQPNFSTSSEPLLSSALNTHELSSILPIKCPKDEDLLEQKPVTSAEQESEKNHLTTASNYNKSESQESLVTSPSKPKSPGVEKPIVKPTAGAGPQETNMKEPLATLVDQSPESLKRKSSLTQEEAPVSWEKRPRVTENRQHQQPFQVSPQPFLNRGDRIQVRKVPPLKIPVSRISPMPFHPSQVSPRARFPVSITSP
B5: His-BAP1-ULD ∆K637-C638 (sub of N) (domain or fragment, human, UniProt Q92560 601-729, looked up)
chain: KEVVEATDSREKTGMVRPGEPLSGEKYSPKELLALLNVEAEIANYEACLKEEVEKRKKFKIDDQRRTHNYDEFICTFISMLAQEGMLANLVEQNISVRRRQGVSIGRLHKQRKPDRRKRSRPYKAKRQ
B6: His-ASXL2-AB (261–381 aa) (domain or fragment, human, UniProt Q76L83 261-381, looked up)
chain: MKRTKCADIDVETPDSILVNTNLRALINKHTFSVLPGDCQQRLLLLLPEVDRQVGPDGLMKLNGSALNNEFFTSAAQGWKERLSEGEFTPEMQVRIRQEIEKEKKVEPWKEQFFESYYGQS

Numbering of substitutions follows the chain as printed. In names and notes the source's numbering stands.

The target in assay [1] is T1, GST-BAP1-UCH (1–250 aa). Briefly: pull-down.
Assay [2] addresses T2, His-BAP1-FL ∆E283-S285 (baculovirus). The assay is described as follows: co-IP.
For assay [3], the target named is T3, GST-BAP1 (full length). The assay is described as follows: pull-down.
The target in assay [4] is T4, GST-BAP1-ULD. Briefly: pull-down.
Assay [5] concerns the target B1. Briefly: pull-down.

Regarding B1, the binding result in assay [1] is recorded as “binds”.
On the same count and under the same terms, next, B2: “binds”; B3: “binds”.
On to B4, for which the binding result in assay [2] and in assay [3] was “binds” throughout.
On to B5, for which, in assay [1], the binding result was “binds”.
For B6, the binding result in assay [4], in assay [3] and in assay [5] was “binds” each time.
